In paper PMC9629515:
Read-outs that look alike come from different tables or passages of the source.

Key:
[1] = molecular target: cytosolic domain of Aeromonas hydrophila AscV (AscVC; residues 375–721) (Aeromonas hydrophila AH3)
[2] = molecular target: cytosolic domain of Photorhabdus luminescens LscV (LscVC; residues 357–705) (Photorhabdus luminescens (Table 1: Photorhabdus laumondii TT01)); assay: crystal structure
[3] = molecular target: cytosolic domain of Photorhabdus luminescens LscV (LscVC; residues 357–705) (Photorhabdus luminescens (Table 1: Photorhabdus laumondii TT01)); assay: crystal structure; remark: listed apart in the source

Row | Substance | stoichiometry N [1] | stoichiometry N [2] | stoichiometry N [3]
1 | cytosolic domain of Aeromonas hydrophila AscV (AscVC; residues 375–721) (domain or fragment) | 10 |  | 
2 | cytosolic domain of Photorhabdus luminescens LscV (LscVC; residues 357–705) (domain or fragment) |  | 8 | 9
